Data: paper PMC3789827, “A GDF5 Point Mutation Strikes Twice - Causing BDA1 and SYNS2” (PLoS Genetics, 2013)

T1: NOGGIN (NOG) (UniProt Q13253 28-232)
T1 construct: NOGGIN (NOG), BMP antagonist
T1 sequence (looked up): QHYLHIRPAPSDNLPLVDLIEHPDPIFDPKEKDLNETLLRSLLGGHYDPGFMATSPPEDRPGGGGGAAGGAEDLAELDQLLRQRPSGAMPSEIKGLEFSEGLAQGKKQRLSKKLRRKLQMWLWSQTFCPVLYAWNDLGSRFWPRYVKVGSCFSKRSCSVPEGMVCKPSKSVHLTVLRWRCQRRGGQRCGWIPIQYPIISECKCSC

B1: recombinant human GDF5 variant W414R (ligand, UniProt P43026 28-501, looked up)
chain: APLATRQGKRPSKNLKARCSRKALHVNFKDMGRDDWIIAPLEYEAFHCEGLCEFPLRSHLEPTNHAVIQTLMNSMDPESTPPTCCVPTRLSPISILFIDSANNVVYKQYEDMVVESCGCR
notes: Growth and Differentiation Factor 5 (GDF5), human, recombinant protein with the patient mutation p.W414R; The mutation was found in a family with SYNS2 and BDA1 (c.T1240C); also called rhGDF5^W414R; GDF5^W414R; source: recombinant, provided by Biopharm GmbH, dissolved in 10 mM HCl

How the values were obtained:
Test in all cases: SPR; BIA2000 system (Biacore); NOG and ectodomains of BMPR1A and BMPR1B immobilised, GDF5 proteins as analyte; apparent KD; mean of two experiments with at least six analyte concentrations
Conditions in all cases: both partners purified
NOGGIN (NOG) = molecular target: T1, NOGGIN (NOG)
[1] = molecular target: B1
[2] = molecular target: T2, BMP receptor type IA (BMPR1A) ectodomain (UniProt P36894 24-152)
T2 construct: BMP receptor type IA (BMPR1A), ectodomain
T2 sequence (P36894 24-152): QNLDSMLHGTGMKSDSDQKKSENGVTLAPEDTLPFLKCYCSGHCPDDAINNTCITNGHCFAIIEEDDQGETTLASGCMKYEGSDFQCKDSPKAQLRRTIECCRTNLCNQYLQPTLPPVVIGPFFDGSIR

Kd (NOGGIN (NOG))	Kd [1]	Kd [2]	Binder
2 nM			recombinant human GDF5 (Growth and Differentiation Factor 5), wild type (ligand, UniProt P43026 28-501, looked up, Growth and Differentiation Factor 5 (GDF5), human, recombinant protein; also called rhGDF5; GDF5^wt; source: recombinant, provided by Biopharm GmbH, dissolved in 10 mM HCl) APLATRQGKRPSKNLKARCSRKALHVNFKDMGWDDWIIAPLEYEAFHCEGLCEFPLRSHLEPTNHAVIQTLMNSMDPESTPPTCCVPTRLSPISILFIDSANNVVYKQYEDMVVESCGCR
	3.3 nM		BMP receptor type IB (BMPR1B) ectodomain (domain or fragment, UniProt O00238 14-126, looked up, BMP receptor type IB (BMPR1B), ectodomain) KKEDGESTAPTPRPKVLRCKCHHHCPEDSVNNICSTDGYCFTMIEEDDSGLPVVTSGCLGLEGSDFQCRDTPIPHQRRSIECCTERNECNKDLHPTLPPLKNRDFVDGPIHHR
25.5 nM		124 nM	B1
